The values below come from article PMC6942045.

For the assay, the target named is K63-di-Ub (UniProt P0CG47). Put plainly: ITC. On the technique in general: ITC needs no label: the signal is the heat of the interaction.

By Kd is commonly meant the constant that tells how readily two partners part at equilibrium. Read a high Kd as weaker binding. With “Cezanne2 UBA (1-88 aa), GST cleaved (from UniProt Q8TE49 1-88) (domain or fragment)”, the Kd stood at 20 µM.

For the substance “Rap80 UIMs (60-144 amino acids), GST cleaved (from UniProt Q96RL1 60-144) (domain or fragment)”, the Kd worked out at 6.4 µM.

“Cezanne UBA (1-66 aa), GST cleaved (from UniProt Q6GQQ9 1-66) (domain or fragment)” had a dissociation constant Kd of 20 µM.
